{
  "source": "paper PMC2824112",
  "about": "“A comparative analysis of the fluorescence properties of the wild-type and active site mutants of the hepatitis C virus autoprotease NS2-3” (Biochimica et Biophysica Acta, 2010)",
  "proteins": {"B1": {"name": "JFH-1 NS2-3 wild-type precursor (HCV genotype 2a NS2-3 autoprotease, residues 907-1210) (domain or fragment)", "chain": "RAALTHVPYFVRAHALIRVCALVKQLAGGRYVQVALLALGRWTGTYIYDHLTPMSDWAASGLRDLAVAVEPIIFSPMEKKVIVWGAETAACGDILHGLPVSARLGQEILLGPADGYTSKGWKLLAPITAYAQQTRGLLGAIVVSMTGRDRTEQAGEVQILSTVSQSFLGTTISGVLWTVYHGAGNKTLAGLRGPVTQMYSSAEGDLVGWPSPPGTKSLEPCKCGAVDLYLVTRNADVIPARRRGDKRGALLSPRPISTLKGSSGGPVLCPRGHVVGLFRAAVCSRGVAKSIDFIPVETLDVVTR", "notes": "The wild type auto-cleaves at 25 °C with about 30% efficiency overnight; also called WT NS2-3; NS2-3 precursor; not shown: FLAG, C-terminal, kept"}},
  "target": "the molecule itself",
  "assay": "cross-linking; glutaraldehyde (final 0.001-0.002% v/v in refolding buffer) on refolded NS2-3 precursor (0.2 uM), 50 ul, 25 °C, 5 min; SDS-PAGE and western blot with anti-FLAG; monomer to dimer",
  "data": [
    {"protein": "B1", "values": [
      {"measurement": "stoichiometry N", "value": 2}
    ]}
  ]
}
